Series [1] deals with the molecule itself. Put plainly: SEC-MALS; purified proteins and preformed complexes, Superdex-200 10/300, 2 mg/ml, 15 mM TrisHCl, 150 mM NaCl, pH 7.4.
The target of series [2] is T1, Lip-DVL2-PDZ (human, UniProt O14641 285-373).
T1 construct: PDZ domain of human DVL2, residues 285-373; also called DVL2 PDZ domain; wt DVL2 PDZ domain; source: E. coli BL21DE3 pRare2, purified (NiNTA, SEC)
T1 sequence (looked up): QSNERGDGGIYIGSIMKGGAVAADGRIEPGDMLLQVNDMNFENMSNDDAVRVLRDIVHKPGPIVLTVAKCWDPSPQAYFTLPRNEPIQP
Put plainly: ITC; MicroCal iTC200, 15 mM Tris-HCl, 150 mM NaCl, pH 7.4; Lip-DVL2-PDZ or Lip-DVL2-PDZ-V334E (696 μM) injected into 17.2 μM RFP-NKD-EF. The note with it: both partners purified.

B1: RFP-NKD1-EF (domain or fragment, human, UniProt Q969G9 110-190, looked up)
chain: EPCPGSKKQLKFEELQCDVSMEEDSRQEWTFTLYDFDNNGKVTREDITSLLHTIYEVVDSSVNHSPTSSKMLRVKLTVAPD
notes: EF-hand of human NKD1, residues 110-190; Dimer by SEC-MALS (expected RFP-NKD1-EF dimer, 71.8 kDa); also called RFP-NKD-EF; NKD1 EF-hand; source: E. coli BL21DE3 pRare2, purified (NiNTA, SEC)
Take B1: the “stoichiometry N” value in series [1] came out at 2. Further, the Kd in series [2] was 3.2 ± 0.2 µM.

For the origin of these results see paper PMC7581431, “Feedback control of Wnt signaling based on ultrastable histidine cluster co-aggregation between Naked/NKD and Axin” (eLife, 2020).
